In article PMC8691648, “Heterophilic and homophilic cadherin interactions in intestinal intermicrovillar links are species dependent” (PLoS Biology, 2021):
Values belong to the molecule of their own block, whether it stands above or below them.

Assays:
[1] = molecular target: mm PCDH24 EC1-2Fc (mouse); assay: SPR; OpenSPR (Nicoya); mm PCDH24 EC1-2Fc immobilised on a Protein A sensor chip (>800 RU); mm CDHR5 EC1-2 injected at 2 to 23.5 uM; 20 mM Tris HCl pH 7.5, 150 mM NaCl, 50 mM KCl, 2 mM CaCl2, 0.5 mM TCEP, 1% BSA; 20 uL/min; kinetic fit, 1:1 model
[2] = molecular target: the molecule itself; assay: crystal structure; contacts between copies of one fragment in the crystal (asymmetric unit or symmetry mates); vapor diffusion at 4 °C
[3] = molecular target: the molecule itself; assay: bead aggregation assay; homophilic; Protein G Dynabeads coated with one Fc fusion captured from concentrated serum-free medium and washed; 50 mM Tris pH 7.5, 100 mM NaCl, 10 mM KCl, 0.2% BSA, 2 mM CaCl2; 60 min on a depression slide, then rocking 1 to 2 min

Kd [1]: 16 µM
Molecule: mm CDHR5 EC1-2 (domain or fragment)

B1: hs PCDH24 EC1-2 (mammalian-produced, form II crystal) (domain or fragment, human)
chain: NVAPKFLANMTSVILPEDLPVGAQAFWLVAEDQDNDPLTYGMSGPNAYFFAVTPKTGEVKLASALDYETLYTFKVTISVSDPYIQVQREMLVIVEDRNDNAPVFQNTAFSTSINETLPVGSVVFSVLAVDKDMGSAGMVVYSIEKVIPSTGDSEHLFRILANGSIVLNGSLSYNNKSAFYQLELKACDLGGMYHNTFTIQCSLPVFLSISVVDQPDLDTVPRARDPPVGG
modifications: N-linked glycosylation at N9
notes: protocadherin-24 (PCDH24, also CDHR2), human, repeats EC1-2; DNA cloned with the signal peptide in a CMV vector, protein secreted; the structure includes residues N1 to D218; numbers count on: the mature protein; The range is that of the residues in the structure; The crystallised sample also held mammalian-produced hs CDHR5 EC1-2, which is not in the structure; also called Hs PCDH24 EC1-2 II; …
binding result [2]: binds

B2: hs PCDH24 EC1-MAD10Fc (Fc fusion, human)
chain: NVAPKFLANMTSVILPEDLPVGAQAFWLVAEDQDNDPLTYGMSGPNAYFFAVTPKTGEVKLASALDYETLYTFKVTISVSDPYIQVQREMLVIVEDRNDNAPVFQNTAFSTSINETLPVGSVVFSVLAVDKDMGSAGMVVYSIEKVIPSTGDSEHLFRILANGSIVLNGSLSYNNKSAFYQLELKACDLGGMYHNTFTIQCSLPVFLSISVVDQPDLDPQFVREFYSASVAEDAAKGTSVLTVEAVDGDKGINDPVIYSISYSTRPGWFDIGADGVIRVNGSLDREQLLEADEEVQLQVTATETHLNIYGQEAKVSIWVTVRVMDVNDHKPEFYNCSLPACTFTPEEAQVNFTGYVDEHASPRIPIDDLTMVVYDPDKGSNGTFLLSLGGPDAEAFSVSPERAVGSASVQVLVRVSALVDYERQTAMAVQVVATDSVSQNFSVAMVTIHLRDINDHRPTFPQSLYVLTVPEHSATGSVVTDSIHATDPDTGAWGQITYSLLPGNGADLFQVDPVSGTVTVRNGELLDRESQAVYYLTLQATDGGNLSSSTTLQIHLLDINDNAPVVSGSYNIFVQEEEGNVSVTIQAHDNDEPGTNNSRLLFNLLPGPYSHNFSLDPDTGLLRNLGPLDREAIDPALEGRIVLTVLVSDCGEPVLGTKVNVTITVEDINDNLPIFNQSSYNFTVKEEDPGVLVGVVKAWDADQTEANNRISFSLSGSGANYFMIRGLVLGAGWAEGYLRLPPDVSLDYETQPVFNLTVSAENPDPQGGETIVDVCVNVKDVNDNPPTLDVASLRGIRVAENGSQHGQVAVVVASDVDTSAQLEIQLVNILCTKAGVDVGSLCWGWFSVAANGSVYINQSKAIDYEACDLVTLVVRACDLATDPGFQAYSNNGSLLITIEDVNDNAPYFLPENKTFVIIPELVLPNREVASVRARDDDSGNNGVILFSILRVDFISKDGATIPFQGVFSIFTSSEADVFAGSIQPVTSLDSTLQGTYQVTVQARDRPSLGPFLEATTTLNLFTVDQSYRSRLQFSTPKEEVGANRQAINAALTQATRTTVYIVDIQDIDSAARARPHSYLDAYFVFPNGSALTLDELSVMIRNDQDSLTQLLQLGLVVLGSQESQESDLSKQLISTVPRARDPPV
notes: protocadherin-24 (PCDH24, also CDHR2), human, full-length extracellular domain EC1 to MAD10; DNA cloned with the signal peptide, protein secreted; numbers count on: the mature protein; linker between the PCDH24 fragment and the Fc tag in the CMV vector; also called Fc-tagged full-length hs PCDH24 extracellular domain; human protocadherin-24; not shown: Fc, C-terminal, kept
binding result [3]: binds
